Results from US20150191543A1 (University of California, published 2015).

B1: anti-mCD8 YTS 169 minibody (other)
scFv: EVKLQESGGGLVQPGRSLKLSCAASGFNFNDYWMGWVRQAPGKGLEWIGEINKDSSTINYTPSLKDKFTISRDNAQNTLYLQMSKLGSEDTAIYYCARARGMMVLIIPHYFDYWGQGVMVTVSSGSTSGGGSGGGSGGGGSSDIVLTQSPAMAMSPGERITISCRASESVSTRMHWYQQKPGQQPKLLIYGASNLESGVPARFSGSGSGTDFTLTIDPVEANDTATYFCQQSWYDPWTFGGGTKLELKLEPRGPTIKPCPPCKCPAPNLLGGPGSVRAPQVYVLPPPEEEMTKKQVTLTCMVTDFMPEDIYVEWTNNGKTELNYKNTEPVLDSDGSYFMYSKLRVEKKNWVERNSYSCSVVHEGLHNYHTTKSFSRTPGKAAAAGHLPETGAGHHHHHHAAA
notes: Minibody (scFv-hinge-CH3 homodimer); also called YTS169 Mb
B2: anti-mCD8 2.43 Cys-diabody (other)
scFv: EVQLVESGGGLVQPGRSLKLSCAASGFTFSNYYMAWVRQAPTKGLEWVAYINTGGGTTYYRDSVKGRFTISRDDAKSTLYLQMDSLRSEDTATYYCTTAIGYYFDYWGQGVMVTVSSGGGGSDIQLTQSPASLSASLGETVSIECLASEDIYSYLAWYQQKPGKSPQVLIYAANRLQDGVPSRFSGSGSGTQYSLKISGMQPEDEGDYFCLQGSKFPYTFGAGTKLELKAAAGCGGHHHHHH
notes: Cys-diabody (scFv dimer, about 51 kDa)
B3: anti-mCD8 2.43 minibody (other)
scFv: EVQLVESGGGLVQPGRSLKLSCAASGFTFSNYYMAWVRQAPTKGLEWVAYINTGGGTTYYRDSVKGRFTISRDDAKSTLYLQMDSLRSEDTATYYCTTAIGYYFDYWGQGVMVTVSSGSTSGGGSGGGSGGGGSSDIQLTQSPASLSASLGETVSIECLASEDIYSYLAWYQQKPGKSPQVLIYAANRLQDGVPSRFSGSGSGTQYSLKISGMQPEDEGDYFCLQGSKFPYTFGAGTKLELKLEPRGPTIKPCPPCKCPAPNLLGGPGSVRAPQVYVLPPPEEEMTKKQVTLTCMVTDFMPEDIYVEWTNNGKTELNYKNTEPVLDSDGSYFMYSKLRVEKKNWVERNSYSCSVVHEGLHNYHTTKSFSRTPGKAAAAGHLPETGAGHHHHHHAAA
notes: Minibody (scFv-hinge-CH3 homodimer, about 80 kDa; 19% higher multimers); Some assays used the NOTA/64Cu-labelled or FITC-labelled protein

What was measured:
[1] = target: T1, soluble CD8αβ heterodimer fusion protein (mouse, UniProt P01731 28-151; P10300 22-138); assay: SPR, Biacore 3000; minibody captured by goat anti-mouse IgG Fc, sCD8αβ as analyte at 0-100 nM
T1 sequence (P10300 other isoform, or with tags, fused parts or gaps): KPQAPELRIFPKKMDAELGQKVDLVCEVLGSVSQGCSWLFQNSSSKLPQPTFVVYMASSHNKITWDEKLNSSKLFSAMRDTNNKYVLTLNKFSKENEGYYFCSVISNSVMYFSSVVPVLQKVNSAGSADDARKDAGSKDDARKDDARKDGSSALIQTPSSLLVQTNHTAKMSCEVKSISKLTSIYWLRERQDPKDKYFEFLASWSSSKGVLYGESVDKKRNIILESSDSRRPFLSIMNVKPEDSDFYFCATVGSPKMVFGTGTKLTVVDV
Experimental: FIG. 15A-to FIG. 15C depict the kinetic analysis of minibody binding to sCD8αβ antigen using SPR Biacore 3000. […] Soluble monovalent antigen was then flowed over the chip at 100 (green), 50 (magenta), 25 (red), 12.5 (dark blue), 6.25 (light blue), and 0 (black) nM.
(§1) Surface Plasmon Resonance (SPR) analysis was performed on a Biacore 3000 (Precision Antibody, Inc.). Briefly, Mbs were captured using goat anti-mouse IgG Fc and sCD8αβ antigen was flowed over the chip at 100, 50, 25, 12.5, 6.25 and 0 nM. The equilibrium constant (KD) was calculated from the observed on (kₐ) and off (kd) rates.

[2] = target: T1, soluble CD8αβ heterodimer fusion protein; assay: SPR, Biacore 3000; minibody captured by goat anti-mouse IgG Fc, soluble monomeric sCD8αβ flowed at 0-100 nM
Experimental: as §1
SPR kinetic analysis was performed using the Biacore 3000 with immobilized minibody and soluble monomeric sCD8αβ.

[3] = target: T2, mouse CD8α, Lyt2.2 allele (mouse, UniProt P01731 28-247); assay: statement in Example 5; supported there only by in vivo immunoPET and biodistribution in C57Bl/6 mice
T2 construct: On the cells it is paired with CD8β (BW58 is Lyt2.2+, Lyt3+); also called CD8a Lyt2.2; CD8-Lyt2.2
T2 sequence (P01731 28-247 limits assumed): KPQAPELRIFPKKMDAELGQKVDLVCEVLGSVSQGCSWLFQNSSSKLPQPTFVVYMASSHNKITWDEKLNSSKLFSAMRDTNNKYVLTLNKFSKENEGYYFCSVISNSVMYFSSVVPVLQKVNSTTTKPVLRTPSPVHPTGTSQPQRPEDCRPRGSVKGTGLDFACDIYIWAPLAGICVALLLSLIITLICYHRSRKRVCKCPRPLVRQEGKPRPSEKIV

[4] = target: T3, mouse CD8α, Lyt2.1 allele (mouse, UniProt P01731 28-247); assay: statement in Example 5; supported there only by in vivo immunoPET and biodistribution in C3H mice
T3 construct: Position 78 is counted on mature CD8a, not on the precursor; On the cells it is paired with CD8β (TK-1 is Lyt2.1+, Lyt3+); also called CD8a Lyt2.1; CD8-Lyt2.1
T3 sequence (P01731 28-247 M105V limits assumed): as the sequence (P01731 28-247 limits assumed) above, with M78V counted along it

Binder | Ka [1] | koff [1] | kon [1] | Kd [2] | binding result [3] | binding result [4]
B1 | 3e+07 M⁻¹ | 0.0076 s⁻¹ | 230000 M⁻¹ s⁻¹ | 33 nM |  | 
B2 |  |  |  |  | binds | no binding
B3 | 3e+07 M⁻¹ | 0.0041 s⁻¹ | 120000 M⁻¹ s⁻¹ | 34 nM |  | 
